Experimental data published in patent US20170137855A1, “RECOMBINANT CELLS AND METHODS FOR NONPHOSPHORYLATIVE METABOLISM” (REGENTS OF THE UNIVERSITY OF MINNESOTA, priority 2015, published 2017).

Test system: O=CCCC=O
Experiment: Alcohol dehydrogenase YqhD, coupled assay, NADPH consumption
Assay type: biochemical, E. coli
Details: other: coupled assay, substrate from 0.1-10 mM L-arabonate, 1 mM NADPH, pH 7.5, 10 nM YqhD, 30.0 °C
Description: 2-Ketoacid decarboxylase (Kivd) and alcohol dehydrogenase (YqhD): The decarboxylase activity of Kivd was measured by a coupled enzymatic assay with AraC, AraD, and YqhD (Zhang et al., 2011. ChemSusChem 4:1068-1070). Excess AraC, AraD, and YqhD was used and the oxidation of NADPH was monitored at 340 nm. The assay mixture contained 1 mM NADPH, 1 μM AraC, 1 μM AraD, and 100 nM YqhD and 0.1-10 mM L-arabonate in assay buffer (100 mM Tris-HCl buffer, pH 7.5, 5 mM MgSO4, 0.5 mM ThDP) with a total volume of 0.1 ml. The mixture was incubated at 30° C. for one hour and 10 nM Kivd was added. The dehydrogenase activity of YqhD was assayed according to NADPH initial consumption rates in a coupled assay. The assay mixture contained 1 mM NADPH, 100 nM Kivd, 1 μM AraC, 1 μM AraD, and 0.1-10 mM L-arabonate in 100 μl of 100 mM Tris-HCl buffer (pH 7.5) with 5 mM MgSO4. The mixture was first incubated at 30° C. for one hour. Afterwards, 10 nM YqhD was added and the NADPH consumption rate was monitored.

For “E. coli alcohol dehydrogenase YqhD (Escherichia coli K-12)”, the Km was 1900 µM and the kcat was 45.0 s⁻¹.
